In article PMC8761706, “Mapping of the fibrinogen-binding site on the staphylocoagulase C-terminal repeat region” (The Journal of Biological Chemistry, 2021) one finds Kd data, which are given here for one molecule.

The target of assay [1] is T1, [5F]PR–R1 (Staphylococcus aureus Newman D2 Tager …, 5-fluorescein (5-IAF) on the engineered C-terminal Cys).
T1 construct: the 10 SC residues preceding PR (1-10 of the construct numbering); staphylocoagulase, first 11 residues of the 32-residue pseudorepeat PR (11-21 of the construct numbering); last 21 residues of PR (22-42 of the construct numbering); staphylocoagulase repeat R1, 27 residues; engineered C-terminal Cys for labeling; not shown: His6, N-terminal, cleaved
Briefly: other fluorescence titration; as the intensity titration in Hepes pH 7.4, with saturating GPRP (4.9 mM in the methods, 5 mM in the results); n fixed to 1. The settings on record: both partners purified.

Assay [2] addresses T1, [5F]PR–R1. The experiment in a line: other fluorescence titration; fluorescein-labeled construct at fixed concentration titrated with frag D; fluorescence intensity; 25 °C; 50 mM Hepes, 110 mM NaCl, 5 mM CaCl2, 1 mg/ml PEG-8000, pH 7.4, 10 μM FPR-CK; quadratic fit; n fixed to 1 for the Ala constructs and MP. Conditions: both partners purified.

B1: fibrinogen fragment D (domain or fragment)
chain 1: VSEDLRSRIEVLKRKVIEKVQHIQLLQKNVRAQLVDMKRLEVDIDIKIRSCRGSCSRALAREVDLKDYEDQQKQLEQVIAKDLLPSR
chain 2: DNENVVNEYSSELEKHQLYIDETVNSNIPTNLRVLRSILENLRSKIQKLESDVSAQMEYCRTPCTVSCNIPVVSGKECEEIIRKGGETSEMYLIQPDSSVKPYRVYCDMNTENGGWTVIQNRQDGSVDFGRKWDPYKQGFGNVATNTDGKNYCGLPGEYWLGNDKISQLTRMGPTELLIEMEDWKGDKVKAHYGGFTVQNEANKYQISVNKYRGTAGNALMDGASQLMGENRTMTIHNGMFFSTYDRDNDGWLTSDPRKQCSKEDGGGWWYNRCHAANPNGRYYWGGQYTWDMAKHGTDDGVVWMNWKGSWYSMRKMSMKIRPFFPQQ
chain 3: KMLEEIMKYEASILTHDSSIRYLQEIYNSNNQKIVNLKEKVAQLEAQCQEPCKDTVQIHDITGKDCQDIANKGAKQSGLYFIKPLKANQQFLVYCEIDGSGNGWTVFQKRLDGSVDFKKNWIQYKEGFGHLSPTGTTEFWLGNEKIHLISTQSAIPYALRVELEDWNGRTSTADYAMFKVGPEADKYRLTYAYFAGGDAGDAFDGFDFGDDPSDKFFTSHNGMQFSTWDNDNDKFEGNCAEQDGSGWWMNKCHAGHLNGVYYQGGTYSKASTPNGYDNGIIWATWKTRWYSMKKTTMKIIPFNRLTIGEGQQHHLGGAK
Regarding B1, the Kd (as a rule, the equilibrium constant for the complex coming apart) in assay [5F]PR–R1 [1] came out at 18 nM; in assay [5F]PR–R1 [2], 49 nM.
